Assay results published in patent publication US20110206694A1 (UNIVERSITY OF TENNESSEE RESEARCH FOUNDATION, published 2011).

Target: labeled control protein (BSA) (UniProt P02769 25-607)
Assay: membrane-immobilized flagellin bait, biotinylated prey, streptavidin-HRP

labeled control protein (BSA), sequence (P02769 25-607 limits assumed): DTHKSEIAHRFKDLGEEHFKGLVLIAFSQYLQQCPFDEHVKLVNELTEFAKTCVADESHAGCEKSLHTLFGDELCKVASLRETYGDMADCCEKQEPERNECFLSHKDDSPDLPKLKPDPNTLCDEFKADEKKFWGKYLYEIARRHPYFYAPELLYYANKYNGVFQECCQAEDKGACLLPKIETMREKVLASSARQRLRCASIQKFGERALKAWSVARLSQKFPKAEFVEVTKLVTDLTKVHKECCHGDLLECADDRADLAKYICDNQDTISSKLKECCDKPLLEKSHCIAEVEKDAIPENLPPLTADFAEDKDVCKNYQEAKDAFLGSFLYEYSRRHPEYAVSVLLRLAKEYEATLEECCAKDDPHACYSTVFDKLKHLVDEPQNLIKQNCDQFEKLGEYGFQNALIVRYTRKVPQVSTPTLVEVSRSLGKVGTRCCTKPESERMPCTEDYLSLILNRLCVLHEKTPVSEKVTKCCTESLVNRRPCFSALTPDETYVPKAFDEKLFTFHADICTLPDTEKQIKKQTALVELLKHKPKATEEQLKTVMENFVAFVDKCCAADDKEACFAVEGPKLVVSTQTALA

B1: flagellin FliC, serotype H48, of E. coli K-12 (MG1655) (other)
chain: AQVINTNSLSLITQNNINKNQSALSSSIERLSSGLRINSAKDDAAGQAIANRFTSNIKGLTQAARNANDGISVAQTTEGALSEINNNLQRVRELTVQATTGTNSESDLSSIQDEIKSRLDEIDRVSGQTQFNGVNVLAKNGSMKIQVGANDNQTITIDLKQIDAKTLGLDGFSVKNNDTVTTSAPVTAFGATTTNNIKLTGITLSTEAATDTGGTNPASIEGVYTDNGNDYYAKITGGDNDGKYYAVTVANDGTVTMATGATANATVTDANTTKATTITSGGTPVQIDNTAGSATANLGAVSLVKLQDSKGNDTDTYALKDTNGNLYAADVNETTGAVSVKTITYTDSSGAASSPTAVKLGGDDGKTEVVDIDGKTYDSADLNGGNLQTGLTAGGEALTAVANGKTTDPLKALDDAIASVDKFRSSLGAVQNRLDSAVTNLNNTTTNLSEAQSRIQDADYATEVSNMSKAQIIQQAGNSVLAKANQVPQQVLSLLQG
notes: also called FliCH48; FliC (H48)
binding result: no binding (tested: 10 µg/ml)
